Laboratory results reported in patent publication US20220064295A1 (ITABMED HK, published 2022).

How the values were obtained:
Assay in all cases: BLI (Octet), antigen-Fc captured on anti-human Fc (AHC) biosensor, MSAP in solution
[1] = molecular target: T1, Recombinant Human CD19 Fc Chimera (R&D Systems, Inc) (human, UniProt P15391 20-291)
T1 construct: Bought reagent; also called huCD19.Fc; human CD19 antigen; Fc part of the bought chimera not given
T1 sequence (looked up): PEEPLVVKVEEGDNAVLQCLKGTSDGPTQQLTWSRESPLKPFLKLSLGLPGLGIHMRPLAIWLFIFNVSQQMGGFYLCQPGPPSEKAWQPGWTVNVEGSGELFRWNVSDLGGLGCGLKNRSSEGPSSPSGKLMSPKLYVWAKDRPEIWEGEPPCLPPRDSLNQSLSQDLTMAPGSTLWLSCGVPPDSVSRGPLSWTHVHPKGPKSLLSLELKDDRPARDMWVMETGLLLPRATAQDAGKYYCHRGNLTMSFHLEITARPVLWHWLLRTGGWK
Procedure: (§1) The expression of the CD3 antigen constructs has been described in U.S. Pat. No. 8,846,042. The CD3 antigen constructs or the CD19 antigen (Cynomolgus/Rhesus CD19 Protein (Fc Tag), Sino Biological. Inc; Recombinant Human CD19 Fc Chimera, R&D Systems. Inc) were diluted to 0.02 mg/mL with dilution (PBS), and then immobilized on an anti-Human Fc capture (AHC) biosensor. […] Control wells containing PBS only were also set up. The detection results were analyzed using ForteBio Data Acquisition and ForteBio Data Analysis software.

[2] = molecular target: T2, cynomolgus CD3 antigen construct cynoCD3εAA 1-27.Fc (cynomolgus monkey; human, UniProt Q95LI5 22-48)
T2 construct: range 1-27; not shown: human IgG Fc
T2 chain (looked up): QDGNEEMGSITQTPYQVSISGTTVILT
Procedure: as §1

[3] = molecular target: T3, Cynomolgus/Rhesus CD19 Protein (Fc Tag) (Sino Biological, Inc) (cynomolgus monkey (Cynomolgus/Rhesus), UniProt F7F486 20-292 (rhesus entry))
T3 construct: Bought reagent; also called cynoCD19.Fc; cynomolgus CD19 antigen
T3 sequence: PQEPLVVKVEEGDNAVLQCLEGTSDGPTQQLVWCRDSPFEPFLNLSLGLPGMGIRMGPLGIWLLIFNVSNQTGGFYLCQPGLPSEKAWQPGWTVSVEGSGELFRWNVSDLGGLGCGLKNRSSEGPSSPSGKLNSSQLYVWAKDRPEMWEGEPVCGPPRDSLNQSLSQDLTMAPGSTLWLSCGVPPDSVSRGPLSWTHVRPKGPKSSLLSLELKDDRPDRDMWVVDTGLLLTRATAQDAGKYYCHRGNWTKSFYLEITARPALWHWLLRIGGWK
Procedure: as §1

| Binder | Kd [1] [nM] | Kd [2] [nM] | Kd [3] [nM] |
| --- | --- | --- | --- |
| ITAB2009 CD19×CD3 MSAP (bispecific antibody, also called CD19×CD3 MSAP ITAB2009; bivalent format ITAB2009) chain 1: EVQLVESGGGLVQPGGSLRLSCAASGFTFNTYAMNWVRQAPGKGLEWVARIRSKYNNYATYYADSVKDRFTISRDDSKNTLYLQMNSLRAEDTAVYYCVRHGNFGNSYVSWFAYWGQGTMVTVSSGGGGSGGGGSGGGGSQAVVTQEPSLTVSPGGTVTLTCRSSTGAVTTSNYANWVQQKPGQAPRGLIGGTNKRAPGTPARFSGSLLGGKAALTLSGVQPEDEAEYYCALWYSNLWVFGGGTKLTVLSGGGGSQVQLVQSGPELIKPGGSVKMSCKASGYTFTSYVMHWVRQKPGQGLEWIGYINPYNDGTKYNEKFKGRATLTSDKSSSTAYMELSSLRSEDSAVYYCARGTYYYGSRVFDYWGQGTTVTVSSASTKGPSVFPLAPSSKSTSGGTAALGCLVKDYFPEPVTVSWNSGALTSGVHTFPAVLQSSGLYSLSSVVTVPSSSLGTQTYICNVNHKPSNTKVDKKVEPKSCPPCS chain 2: DVVMTQSPSSIPVTLGESVSISCRSSKSLQNVNGNTYLYWFQQRPGQSPQLLIYRMSNLNSGVPDRFSGSGSGTDFTLRISGVEPEDVGVYYCMQHLEYPITFGAGTKLEIKRTVAAPSVFIFPPSDEQLKSGTASVVCLLNNFYPREAKVQWKVDNALQSGNSQESVTEQDSKDSTYSLSSTLTLSKADYEKHKVYACEVTHQGLSSPVTKSFNRGECPPCS | 18.2 | 12.9 | 29.6 |
| ITAB2007 CD19×CD3 MSAP (bispecific antibody, One anti-CD19 scFv is fused at the N-terminus of the VH and a second at the N-terminus of the VL of an anti-CD3 Fab fragment; also called CD19×CD3 MSAP ITAB2007; bispecific trivalent ITAB2007) chain 1: DVVMTQSPSSIPVTLGESVSISCRSSKSLQNVNGNTYLYWFQQRPGQSPQLLIYRMSNLNSGVPDRFSGSGSGTDFTLRISGVEPEDVGVYYCMQHLEYPLTFGAGTKLEIKGGGGSGGGGSGGGGSQVQLVQSGPELIKPGGSVKMSCKASGYTFTSYVMHWVRQKPGQGLEWIGYINPYNDGTKYNEKFKGRATLTSDKSSSTAYMELSSLRSEDSAVYYCARGTYYYGSRVFDYWGQGTTVTVSSGGGGSEVQLVESGGGLVQPGGSLRLSCAASGFTFNTYAMNWVRQAPGKGLEWVARIRSKYNNYATYYADSVKDRFTISRDDSKNTLYLQMNSLRAEDTAVYYCVRHGNFGNSYVSWFAYWGQGTMVTVSSASTKGPSVFPLAPSSKSTSGGTAALGCLVKDYFPEPVTVSWNSGALTSGVHTFPAVLQSSGLYSLSSVVTVPSSSLGTQTYICNVNHKPSNTKVDKKVEPKSCPPCS chain 2: DVVMTQSPSSIPVTLGESVSISCRSSKSLQNVNGNTYLYWFQQRPGQSPQLLIYRMSNLNSGVPDRFSGSGSGTDFTLRISGVEPEDVGVYYCMQHLEYPLTFGAGTKLEIKGGGGSGGGGSGGGGSQVQLVQSGPELIKPGGSVKMSCKASGYTFTSYVMHWVRQKPGQGLEWIGYINPYNDGTKYNEKFKGRATLTSDKSSSTAYMELSSLRSEDSAVYYCARGTYYYGSRVFDYWGQGTTVTVSSGGGGSQAVVTQEPSLTVSPGGTVTLTCRSSTGAVTTSNYANWVQQKPGQAPRGLIGGTNKRAPGTPARFSGSLLGGKAALTLSGVQPEDEAEYYCALWYSNLWVFGGGTKLTVLGQPKAAPSVTLFPPSSEELQANKATLVCLISDFYPGAVTVAWKADSSPVKAGVETTTPSKQSNNKYAASSYLSLTPEQWKSHRSYSCQVTHEGSTVEKTVAPTECPPCS | 0.891 | 18.8 | 8.91 |
